Results taken from patent US20230272415.

Legend:
Assay in all cases: cell_activity
[1] = system: ZFN 59581 (synthetic construct); details: pair with 59580; 6 ug mRNA, activated T cells; 83 at 2 ug, 72 at 0.5 ug
[2] = system: ZFN 59440 (synthetic construct); details: pair with 59441; 6 ug mRNA, activated T cells; 82 at 2 ug, 59 at 0.5 ug
[3] = system: ZFN 59580 (synthetic construct); details: pair with 59581; 6 ug mRNA, activated T cells; 83 at 2 ug, 72 at 0.5 ug
[4] = system: ZFN 59489 (synthetic construct); details: pair with 59488; 6 ug mRNA, activated T cells; 84 at 2 ug, 60 at 0.5 ug
[5] = system: ZFN 59557 (synthetic construct); details: pair with 59558; 6 ug mRNA, activated T cells; 80 at 2 ug, 55 at 0.5 ug
[6] = system: ZFN 59558 (synthetic construct); details: pair with 59557; 6 ug mRNA, activated T cells; 80 at 2 ug, 55 at 0.5 ug
[7] = system: ZFN 59488 (synthetic construct); details: pair with 59489; 6 ug mRNA, activated T cells; 84 at 2 ug, 60 at 0.5 ug
[8] = system: ZFN 59441 (synthetic construct); details: pair with 59440; 6 ug mRNA, activated T cells; 82 at 2 ug, 59 at 0.5 ug

ATAGTGCTGCACAAGGCTGACCACATCC (double strand) [CISH exon 3 target of 59581]
activity [1]: 82 % cleavage

CCAGCAAAGGACGAGGTCTAGAAGGCAG (double strand) [CISH exon 2 target of 59440]
activity [2]: 84 % cleavage

CCGGAAAGGCCAGGATGCGTGGCCTGGA (double strand) [CISH exon 3 target of 59580]
activity [3]: 82 % cleavage

GAGGAGGTGGCAGAGGGTACCCCAGCCC (double strand) [CISH exon 2 target of 59489]
activity [4]: 89 % cleavage

GAGTCCAGACGGAAGCTGGAGTCGGCAT (double strand) [CISH exon 3 target of 59557]
activity [5]: 84 % cleavage

GATGCGTGGCCTGGACAAGCAGTTGGAG (double strand) [CISH exon 3 target of 59558]
activity [6]: 84 % cleavage

GGAAGGCCCCAGCAGGCAAGGGCTGCAT (double strand) [CISH exon 2 target of 59488]
activity [7]: 89 % cleavage

GTGGAGCGGACTGGGCAGCGGCCCCTGT (double strand) [CISH exon 2 target of 59441]
activity [8]: 84 % cleavage
